The experiment relates to LPS-induced release of endogenous TNFα from human THP-1 macrophage cells. As to the kind of experiment: ELISA-based TNFα release assay, IC50 determination (Example 12). As to conditions: titration 80.00 to 0.08 μg/ml final; LPS 50 ng/ml, 3 hours. The format is cell-based. The protocol:
Expanding the functional analyses, ELISA-based TNFα release assays were performed to determine the half maximal inhibitory concentration (IC50) for the purified antibody 4H8-E3 of the invention on LPS-induced release of endogenous TNFα from human THP-1 macrophage cells.
In brief, on day 1, Nunc black MaxiSorp® 96-well plates (Thermo Fisher Scientific, USA) were coated overnight with 100 μl per well of mouse anti-human TNFα capture antibody (provided as part of the DuoSet ELISA kit) at 4 μg/ml TBS at 4° C. On day 2, the capture antibody solution was removed and MaxiSorp® plates were blocked with 300 μl per well of TBS, 1% BSA at room temperature for 3 hours. […] Using an infinite M1000 PRO (Tecan Group, Switzerland) microplate reader, the fluorescence of each well was collected at an excitation wavelength of 435 nm and an emission wavelength of 555 nm.
Background: ELISA stands for enzyme-linked immunosorbent assay.

The values below come from patent publication US20220204610A1, “PROTEIN BINDERS FOR IRHOM2” (NEW YORK SOCIETY FOR THE RELIEF OF THE RUPTURED AND …, priority 2019, published 2022).

B1: 4H8-E3: Mouse IgM monoclonal antibody against the human iRhom2 juxtamembrane domain adjacent to TMD1; HC VD SEQ ID NO 33, LC VD SEQ ID NO 40 (antibody, V domains shown)
VH: EVQLQQSGPELVKPGASVKISCKASGYTFTDYYMNWVKQSHGKSLEWIGDINPNNGGTSYNQKFKGKATLTVDKSSNTAYMEFRSLTSEDSAVYYCARRGYYGVDYWGQGTTLTVSS
VL: NIVMTQSPKSMSMSVGERVTLNCKASENVGTYVSWYQQKPEQSPKLLIFGASNRYTGVPDRFIGSGFATDFTLTISSVQAEDLADYHCGQSYSYPYTFGGGTKLEIK
modifications: IgM constant regions; antibody sequence
For the molecule B1, the “inhibition of TNFα release from THP-1 cells on titration” value is given as “concentration-dependent inhibition”.
